Data: US7592168B2, “Cephalosporin C acylase mutant and method for preparing 7-ACA using same” (Sandoz AG, priority 2003, dated 2009)
Where a chain is given by its changes, count along the chain named.

Experiments:
[1] = Matsuda et al. 1987; cited from earlier work
[2] = Productivity of CPC acylase mutant, pET29 plasmids in E. coli BL21(DE3) with lactose; conditions: pET29-S12, E. coli BL21(DE3), 2% lactose, 25° C., 72 hr
Description: Each of pET29-TnS5αβ and pET29-S12 plasmids was transformed into E. coli BL21(DE3) by electrophoration to prepare the recombinant E. coli containing pET29-TnS5αβ and pET29-S12 plasmid, respectively, and the productivity of sixfold CPC acylase mutant in each recombinant E. coli was measured The TnS5αβ and S12 CPC acylase mutant gene in these recombinant plasmids was transcribed by the action of T7 promoter which is under the control of LacI operator existed on pET29-a(+) vector.
The recombinant E. coli containing pET-TnS5αβ plasmid was inoculated in […] of a LB broth containing 20 μg/ml of kanamycin and cultivated at 30° C., 200 rpm for 16 hr with vigorous shaking. […] The activity of sixfold CPC acylase mutant to CPC was measured using said crude enzyme solution according to the same method as described in Example <1-1-2>.
Further, the productivity of CPC acylase by S12 mutant enzyme in the E. coli BL21(DE3) transformant containing pET29-S12 recombinant plasmid was measured according to the same method as described above except that […] of a LB broth containing 20 μg/ml of kanamycin and 2% lactose was employed for a main cultivation and the E. coli transformant was cultured at 25° C., 200 rpm for 72 hr with vigorous shaking. […]

B1: Wild-type: Pseudomonas sp. SE83 derived wild-type CPC acylase (AcyII), α-subunit SEQ ID NO: 4 and β-subunit SEQ ID NO: 5, from pBCPC (protein)
alpha: TMAAKTDREALQAALPPLSGSLSIPGLSAPVRVQRDGWGIPHIKASGEADAYRALGFVHAQDRLFQMELTRRKALGRAAEWLGAEAAEADILVRRLGMEKVCRRDFEALGAEAKDMLRAYVAGVNAFLASGAPLPIEYGLLGAEPEPWEPWHSIAVMRRLGLLMGSVWFKLWRMLALPVVGAANALKLRYDDGGQDLLCIPPGVEAERLEADLAALRPAVDALLKAMGG
beta: SNNWAVAPGRTATGRPILAGDPHRVFEIPGMYAQHHLACDRFDMIGLTVPGVPGFPHFAHNGKVAYCVTHAFMDIHDLYLEQFAEDGRTARFGNEFEPVAWRRDRIAVRGGADREFDIVETRHGPVIAGDPLEGAALTLRSVQFAETDLSFDCLTRMPGASTVAQLYDATRGWGLIDHNLVAGDVAGSIGHLVRARVPSRPRENGWLPVPGWSGEHEWRGWIPHEAMPRVIDPPGGLIVTANNRVVADDHPDYLCTDCHPPYRAERIMERLVASPAFAVDDAAAIHADTLSPHVGLLRARLEALGIQGSLPAEELRQTLIAWDGRMDAGSQAASAYNAFRRALTRLVTARSGLEQAIAHPFAAVPPGVSPQGQVWWAVPTLLRNDDAGMLKGWSWDEALSEALSVATQNLTGRGWGEEHRPRFTHPLSAQFPAWAALLNPVSRPIGGDGDTVLANGLVPSAGPEATYGALSRYVFDVGNWDNSRWVVFHGASGHPASPHYADQNAPWSDCAMVPMLYSWDRIAAEAVTSQELVPA
modifications: Pseudomonas sp. SE83
acylase activity to CPC as compared with GL-7-ACA [1]: about 5%

B2: S12: sixfold CPC acylase mutant, α-subunit SEQ ID NO: 7 and β-subunit SEQ ID NO: 8 (protein)
alpha: B1 alpha with V121A, G139S
beta: B1 beta with F58N, I75T, I176V, S471C
modifications: alpha-subunit of mutatnt CPC acylase S12 protein; beta-subunit of mutatnt CPC acylase S12 protein
productivity of CPC acylase mutant [2]: 1,207 unit/l
